First the molecules themselves.
T1: Nogo-A (Homo sapiens (Human), UniProt Q9NQC3 1-1192)
T1 sequence: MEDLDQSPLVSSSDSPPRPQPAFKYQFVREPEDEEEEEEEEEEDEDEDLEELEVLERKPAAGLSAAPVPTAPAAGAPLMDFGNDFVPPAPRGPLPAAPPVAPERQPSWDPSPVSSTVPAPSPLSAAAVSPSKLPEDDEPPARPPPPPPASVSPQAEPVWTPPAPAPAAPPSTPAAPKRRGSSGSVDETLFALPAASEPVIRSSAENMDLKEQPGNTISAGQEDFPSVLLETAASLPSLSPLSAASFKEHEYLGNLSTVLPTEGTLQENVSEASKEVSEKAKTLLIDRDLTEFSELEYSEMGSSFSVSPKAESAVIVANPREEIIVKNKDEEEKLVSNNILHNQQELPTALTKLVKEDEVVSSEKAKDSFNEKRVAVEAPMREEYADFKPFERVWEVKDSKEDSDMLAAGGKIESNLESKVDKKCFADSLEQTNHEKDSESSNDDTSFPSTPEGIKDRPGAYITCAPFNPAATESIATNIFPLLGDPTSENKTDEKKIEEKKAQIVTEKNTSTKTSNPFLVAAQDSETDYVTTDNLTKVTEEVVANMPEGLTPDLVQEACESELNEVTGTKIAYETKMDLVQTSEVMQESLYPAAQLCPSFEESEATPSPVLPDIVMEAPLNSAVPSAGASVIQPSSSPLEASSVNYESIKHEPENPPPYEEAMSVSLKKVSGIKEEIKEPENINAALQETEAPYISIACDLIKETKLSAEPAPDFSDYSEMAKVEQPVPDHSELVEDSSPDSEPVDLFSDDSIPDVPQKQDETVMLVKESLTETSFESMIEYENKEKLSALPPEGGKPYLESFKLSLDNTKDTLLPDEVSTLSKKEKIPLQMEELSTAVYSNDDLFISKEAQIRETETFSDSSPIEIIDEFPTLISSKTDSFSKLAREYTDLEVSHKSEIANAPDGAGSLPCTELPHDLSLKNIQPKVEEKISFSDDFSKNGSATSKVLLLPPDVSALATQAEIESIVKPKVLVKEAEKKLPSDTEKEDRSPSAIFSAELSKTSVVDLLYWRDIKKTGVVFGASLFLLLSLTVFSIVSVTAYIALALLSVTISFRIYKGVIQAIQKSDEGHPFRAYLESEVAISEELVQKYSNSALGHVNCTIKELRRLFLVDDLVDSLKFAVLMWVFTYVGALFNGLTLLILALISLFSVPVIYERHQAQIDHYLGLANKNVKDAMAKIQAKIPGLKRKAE

B1: Asp2/BACE-myc (enzyme, not shown: small tags and cut ends)
chain: ETDEEPEEPGRRGSFVEMVDNLRGKSGQGYYVEMTVGSPPQTLNILVDTGSSNFAVGAAPHPFLHRYYQRQLSSTYRDLRKGVYVPYTQGKWEGELGTDLVSIPHGPNVTVRANIAAITESDKFFINGSNWEGILGLAYAEIARPDDSLEPFFDSLVKQTHVPNLFSLQLCGAGFPLNQSEVLASVGGSMIIGGIDHSLYTGSLWYTPIRREWYYEVIIVRVEINGQDLKMDCKEYNYDKSIVDSGTTNLRLPKKVFEAAVKSIKAASSTEKFPDGFWLGEQLVCWQAGTTPWNIFPVISLYLMGEVTNQSFRITILPQQYLRPVEDVATSQDDCYKFAISQSSTGTVMGAVIMEGFYVVFDRARKRIGFAVSACHVHDEFRTAAVEGPFVTLDMEDCGYNIPQTDESTLMTIAYVMAAICALFMLPLCLMVCQWRCLRCLRQQHDDFADDISLLK
notes: It was transiently transfected into SHSY5Y-APPswe cells; also called BACE/Asp2
B2: NogoB (ASY) (other)
chain: MEDLDQSPLVSSSDSPPRPQPAFKYQFVREPEDEEEEEEEEEEDEDEDLEELEVLERKPAAGLSAAPVPTAPAAGAPLMDFGNDFVPPAPRGPLPAAPPVAPERQPCWDPSPVSSTVPAPSPLSAAAVSPSKLPQDDEPPARPPPPPPASVSPQAEPVWTPPAPAPAAPPSTPAAPKRRGSSGSVVVDLLYWRDIKKTGVVFGASLFLLLSLTVFSIVSVTAYIALALLSVTISFRIYKGVIQAIQKSDEGHPFRAYLESEVAISEELVQKYSNSALGHVNCTIKELRRLFLVDDLVDSLKFAVLMWVFTYVGALFNGLTLLILALISLFSVPVIYERHQAQIDHYLGLANKNVKDAMAKIQAKIPGLKRKAE

The target of assay [1] is T1, Nogo-A. Kind of assay: co-localisation by immunofluorescence in double-transfected SHSY5Y-APPswe cells. The source says:
(§1) cDNAs encoding Nogo isoforms were transfected into cultured SHSY5Y-APPswe cells and expressed proteins detected in fixed cells with immunohistochemistry. Asp2 was detected using a c-terminal myc epitope (FIG. 3A left panel) while the Nogo-A (FIG. 3A right panel) and B isoforms were detected using isoform specific rabbit polyclonal antibodies (designated 67 and 66 respectively or monoclonal Anti-Nogo-A 6D5 as indicated in the figure legends). These experiments confirm that it is possible to overexpress these proteins in this cellular background and can be used as the basis of an assay for modulators of Nogo influenced APP processing.

Assay [2] addresses B1. Described as above.
Excerpt: as §1

Consider B1, for which, in assay [1], the binding result is on record as “binds”.

Turning to B2, the binding result in assay [2] is “binds”.

The values are drawn from patent US20040132096A1 (GlaxoSmithKline, published 2004).
